{
  "source": "the domain aggregation screens of Martell et al. (2025)",
  "data": [
    {"experiment": "soluble fraction after stress (log2 fold change); higher = more stays soluble; pooled small domains, quantitative proteomics", "conditions": "stress: 75 degC", "values": [
      {"sequence": "HMRSFGTLRRLPSGRYQASYAGPDLRRHAAPTTFETKLDAEGWLRDEHRMIERDEWTAPAARSQLK", "soluble fraction (log2)": -0.0721},
      {"sequence": "HMRSFRIGGLVEQGSIARDGQSLTVRFAVTDLAHKIPVTYTGLLPDLFKEGKGVVAEGKLGPDGVFHASQV", "soluble fraction (log2)": -0.0831},
      {"sequence": "HMRSPIWKSITATLTAEIAGGQYRAGDKLPTEAELSQRFGVNRHTLRRALAEMAGAGLVVARRGAGVFVQG", "soluble fraction (log2)": -2.5},
      {"sequence": "HMRSPLYVQIKQHILGDIRKGVWKPGEKLPTELDLAERFGVSVGTVRRAMGGLEDEGIISRREGSGTFVRT", "soluble fraction (log2)": -0.458},
      {"sequence": "HMRSSAATMFGRIALKNKLVDEATLKKVMSELPAGADLGAVLVKQGLISEQHAEAIQKKITAHMKSAP", "soluble fraction (log2)": -0.114},
      {"sequence": "HMRSSALDEIPGIGKQRKKNLLVHFTSVAKIKEASLDEIAAVPGMNRKAALVVVEFFQNQERE", "soluble fraction (log2)": -2.28},
      {"sequence": "HMRSSNEAVSQRRDKILDYISATGRTSTEIVAKEFGVSVMTARRDLLYLMEKRLISKSSSGLFKVDNN", "soluble fraction (log2)": -3.09},
      {"sequence": "HMRTIGDSVYEKIKYDIVHLTLKPGEKLSEASLAEKYGISKAPIRVALRKLQEEGLIVIRPQSGSIVSP", "soluble fraction (log2)": -1.19},
      {"sequence": "HMRTMRHLSVPRQETQQILSQLKAEFALPQGARVQPDPSDSKRTLIPVKEGAESELLSRYPVVHAEP", "soluble fraction (log2)": 0.0613},
      {"sequence": "HMRTNNEITSYKLKSGKKRWKFQTYLGLDDKGQKVSVTRQGFRTYNEAISEYNKLRAQGTQGYQ", "soluble fraction (log2)": -0.948},
      {"sequence": "HMRTPTGVQAYLSSGLIKGIGEKTAAAIVDKFGTDALSVIETDPERLLEIPGITPNKLREILESYNQH", "soluble fraction (log2)": 0.204},
      {"sequence": "HMRTVAERYGLTAGQWRVLELLTQGKTNRQIAEMLDVTEGTVKIHVSAIFKAMKVTNRTQALLLAKKH", "soluble fraction (log2)": -1.28},
      {"sequence": "HMRTYDPQAVELNNKALELINQGRLDSALLVYDQSIKTDKTYYFPHIGKSIIYMRKKDWNKAFEETQQAIK", "soluble fraction (log2)": 0.493},
      {"sequence": "HMRVDLATEVHSVLRRMMSRPPTLQEIRADLDGEEPGRVHEALDALRAAFRGGRGPKNPYESLKRSLRRG", "soluble fraction (log2)": -0.636},
      {"sequence": "HMRVDLVQRLARHGLSPRQSAVAGGVLRGLDNGEISRQLYIAEQTVKDHLHEIYHRLGVHTRTELLIKVLG", "soluble fraction (log2)": -2.22},
      {"sequence": "HMRVGISRNSGAAGIAVWLTQKLGRPVAKTEEIVHILKNWVDDQYEAGRVTNIGDGELWSVYKQMEAEE", "soluble fraction (log2)": -0.953},
      {"sequence": "HMRVTEIDYGAFMKMIEEKNIGEVKVEDYEIVFTDKDNKNIYKTGIMDDPDLTQRLYNSGAVFA", "soluble fraction (log2)": 0.0318},
      {"sequence": "HMRWGDPLTVKVPSFIGQTKDDIAKQHYPFRIEWHGEGAKIGSQLPEVDSVIKQDGTIHLYLV", "soluble fraction (log2)": -0.0635},
      {"sequence": "HMRYFDDEELNNKFLEFLSMRKKIRKPVRTDRALKALLKKLHELSGGDVGLMKQIIDQSLDKEWLGLFEL", "soluble fraction (log2)": -0.889},
      {"sequence": "HMRYNPETTAGRRGLIIKMLDEYGQVNVNELSRYFNVSEVTVRNDLAYLERKNLLIRARGGAIKTE", "soluble fraction (log2)": -1.91},
      {"sequence": "HMRYWVKSETDFLIENRGKYSYQEFADMLGRSYAVVYDKMHQLKIDYTKEELEIFDEKHKAQMREKQQR", "soluble fraction (log2)": -1.96},
      {"sequence": "HMSAAPVGPWALSEFLDAVEKDSVERVTFDDAGKALVAVDADGGRHRVEILPSEGPEILAALRKHSVQFA", "soluble fraction (log2)": 0.181},
      {"sequence": "HMSADEVSQQLTSEQTKSKSYQALLQAYAAYQQKSFDDAALELQNVQQDVLSDSQKTIYNTISQAVNS", "soluble fraction (log2)": 0.26},
      {"sequence": "HMSADISIGYNIPKGSVTVSAGGRTLQEGIDYDINYDLGTIKITNQAILNAGLPVQVNFENNAS", "soluble fraction (log2)": 0.849},
      {"sequence": "HMSADLVYLRKRLQDAIAQLPENMRTAYTLFQIANRSIREISELTGASESLVKVRIHRAKGKLQKQLEDLK", "soluble fraction (log2)": -1.43},
      {"sequence": "HMSAEDYLERIHELIESKGTAHVADIAQSLGVGKPSVTSMVQKLADEGYLNYEKYRSLTLTDSGRSIA", "soluble fraction (log2)": 0.165},
      {"sequence": "HMSAEDYMEMIYRLSQENGFTRVNDLASALNVQPPSVTRMIQKLAELNLIKYEKYGVIMLQPYGIEVGRSL", "soluble fraction (log2)": -2.65}
    ]}
  ]
}
